Reference: publication PMC4833825

Target: recombinant S. pombe eIF2B, one set of the five subunits (α, β, γ, δ, ε), tags cleaved (S. pombe) (UniProt Q9USP0)
Experiment: SEC; purified complex after HRV 3C cleavage of the tags; Sephacryl S-300, then Superose 6 with HMW calibration kit, buffer C (20 mM HEPES-KOH pH 7.5, 150 mM KCl, 5 % glycerol, 1 mM DTT), 277 K; SDS-PAGE of the purified complex

stoichiometry N: 2
Substance: recombinant S. pombe eIF2B, one set of the five subunits (α, β, γ, δ, ε), tags cleaved, Q9USP0 1-341; Q9UT76 1-393; P56288 1-458; Q09924 1-467; P56287 1-678
